Among the data in CN110606891A are Emax values, retold here.

For this experiment, the target named is 鼠CLDN18.2 (mCLDN18.2), claudin-18 isoform A2.1 [Mus musculus], NP_001181850.1 (mouse) (UniProt P56857). The experiment can be described thus: cell ELISA on mCLDN18.2+ cells (Table 23), background.
Chain of UniProt P56857 (P56857 other isoform, or with tags, fused parts or gaps, form in doubt): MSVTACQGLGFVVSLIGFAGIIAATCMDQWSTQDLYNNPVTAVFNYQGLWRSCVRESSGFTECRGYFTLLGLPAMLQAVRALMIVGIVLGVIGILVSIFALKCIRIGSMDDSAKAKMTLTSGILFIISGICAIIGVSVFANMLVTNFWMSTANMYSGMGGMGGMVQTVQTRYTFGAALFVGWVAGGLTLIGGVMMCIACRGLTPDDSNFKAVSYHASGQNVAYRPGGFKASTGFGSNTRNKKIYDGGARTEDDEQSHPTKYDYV

With Neg IgG (和靶点没有结合的非特异性抗体) (antibody), the Emax came to 0.19.
